Reference: US20220049002A1 (KINDRED BIOSCIENCES, published 2022)
Where a chain is given by its changes, count along the chain named.

B1: Clone B antibody (mouse monoclonal anti-canine IL4R) (antibody, mouse IgG1, kappa, V domains shown)
VH: EVKLEESGPELVKPGASVKMSCKASGYTFTSYVMHWVKQKPGQGLEWIGYINPKNDGTFYNGKFKGKATLTSDKSSSTAYMELSSLTSEDSAVYYCAAFNYGIAYWGQGTLVTVSS
VL: IVLTQTPSSLSASLGERVSLTCRASQEISGYLSWLQQKPDGTIKRLIYAASTLDSGVPKRFSGSRSGSDFSLTISSLESEDFADYYCVQYASYPWTFGGGARLEIKR
notes: Mouse IgG; also called anti-IL4R-mAb Clone B
B2: Caninized Clone M9 antibody, variable HC v1 / variable LC v1 (variant canine IgG-B C1q-, CD16-; canine kappa) (antibody, V domains shown)
VH: EVQLVESGGDLVKPGGSLRLSCAASGFTFSSFGMHWVRQAPGKGLEWVAYIRSDSSTIYYADAVKGRFTISRDNAKNTLYLQMNSLRAEDTAMYYCARSGYYGSFSLTYWGQGTLVTVSS
VL: DIMLTQTPLSLSVSPGEPASISCSASSSVSSNYLHWYLQKAGQSPRLLIYRTSNLPSGVPDRFSGSGSGTDFTLRIGRVEAEDAGIYYCQQGSGMLTFGQGTRLEVRR
notes: also called caninized M9 (HC v1)
B3: Caninized Clone M9 antibody, variable HC v2 / variable LC v1 (variant canine IgG-B C1q-, CD16-; canine kappa) (antibody, V domains shown)
VH: B2 VH with A23V, E46Q
VL: B2 VL
notes: also called caninized M9 (HC v2)
B4: M8 mouse monoclonal antibody (anti-canine IL4R) (antibody, V domains shown)
VH: QVQLQQSGPELVKPGALVKISCKASGYTFTSYDINWVKQRPGQGLEWIGWIYPGDGSTKYNEKFKGKATLTADKSSSTAYMQLSSLTSEDSAVYFCARSSFVVWGAGTTVTVSS
VL: DIQMTQSSSYLSVSLGGRVTITCKASDPINNWLAWYQQKPGNAPRLLISGATSLETGVPSRISGSGSGKDYSLSITSLQTEDIATYYCHQYWSIPYTFGGGTKLEIK
notes: Mouse antibody purified from hybridoma culture; also called Clone M8
B5: Murine-canine chimeric M8 antibody (canine IgG-B, canine kappa) (antibody, V domains shown)
VH: B4 VH
VL: B4 VL
notes: Murine VH and VL fused to canine constant heavy chain IgG-B and canine constant light chain (kappa); also called chimeric canine IgG-B (M8)
B6: Caninized Clone M3 antibody, variable HC v1 / variable LC v1 (variant canine IgG-B C1q-, CD16-; canine kappa) (antibody, V domains shown)
VH: EVQLVESGGDLVKPAGSLRLSCTVSGFSLSRYSVHWVRQAPGKGLEWLGMIWGGGSTDYNSVVKGRFTISRDNAKNTVYLQMNSLRAEDTAMYYCARTYRGYALDYWGQGTLVTVSS
VL: DIVMTQTPLSLSVSPGEPASISCRASQDISNYLNWYLQKAGQSPRLLIYYTSRLQSGVPDRFSGSGSGTDFTLRIGRVEAEDAGIYFCQQANTLPLTFGQGTRLEVRR
notes: also called caninized M3 (HC v1)
B7: Caninized Clone M3 antibody, variable HC v2 / variable LC v1 (variant canine IgG-B C1q-, CD16-; canine kappa) (antibody, V domains shown)
VH: ELTLQESGPGLVKPSQTLSLTCTVSGFSLSRYSVHWIRQPRGRGLELLGMIWGGGSTDYNPAFQGRISITADTAKNQFSLQLSSMTTEDTAVYYCARTYRGYALDYWGQGTLVTVSS
VL: B6 VL
notes: also called caninized M3 (HC v2)
B8: M9 mouse monoclonal antibody (anti-canine IL4R) (antibody, V domains shown)
VH: DVQLVESGGGLVQPGGSRKLSCAASGFTFSSFGMHWVRQAPEKGLEWVAYIRSDSSTIYYADTVKGRFTISRDNPKNTLFLQMTSLRSEDTAMYYCARSGYYGSFSLTYWGQGTLVTVSA
VL: EIVLTQSPTTMAASPGEKITITCSASSSVSSNYLHWYQQKPGFSPKLLIYRTSNLPSGVPARFFGSGSGTSYSLTIGTMEAEDVATYYCQQGSGMLTFGAGTKLELK
notes: Mouse antibody purified from hybridoma culture; also called Clone M9
B9: Murine-canine chimeric M9 antibody (canine IgG-B, canine kappa) (antibody, V domains shown)
VH: B8 VH
VL: B8 VL
notes: Murine VH and VL fused to canine constant heavy chain IgG-B and canine constant light chain (kappa); also called chimeric canine IgG-B (M9)
B10: M3 mouse monoclonal antibody (anti-canine IL4R) (antibody, V domains shown)
VH: QVQLKESGPGLVAPSQSLSITCTVSGFSLSRYSVHWVRQPPGKGLEWLGMIWGGGSTDYNSVFKSRLSISKDNSKSQVFLKMNSLQTDDTAMYYCARTYRGYALDYWGQGTSVTVSS
VL: DIQMTQTTSSLSASLGDRVTISCRASQDISNYLNWYQQKPDGTVKLLIYYTSRLQSGVPSRFSGSGSGTDYCLTISNLEQEDIATYFCQQANTLPLTFGSGTKLELK
notes: Mouse antibody purified from hybridoma culture; also called Clone M3
B11: Murine-canine chimeric M5 antibody (canine IgG-B, canine kappa) (antibody, V domains shown)
VH: B10 VH
VL: B10 VL
notes: Murine VH and VL fused to canine constant heavy chain IgG-B and canine constant light chain (kappa); also called chimeric canine IgG-B (M5)
B12: Murine-canine chimeric M3 antibody (canine IgG-B, canine kappa) (antibody, V domains shown)
VH: B10 VH
VL: B10 VL
notes: Murine VH and VL fused to canine constant heavy chain IgG-B and canine constant light chain (kappa); also called chimeric canine IgG-B (M3)
B13: M5 mouse monoclonal antibody (anti-canine IL4R) (antibody, V domains shown)
VH: B10 VH
VL: B10 VL
notes: Mouse antibody purified from hybridoma culture; also called Clone M5

Legend:
[1] = target: Canine IL4R-ECD_C-HuFc_His6 (processed) (canine); assay: BLI (Octet): canine IL4R-ECD_C-HuFc_His6 on anti-human Fc tips
Method: An alternative binding assay was performed also using an Octet Biosensor. Canine IL4R-ECD_C-HuFc_His6 (SEQ ID NO: 109) was captured on anti-human Fc-bound sensor tips. The association of either Clone B or I antibody and canine IL4R-ECD_C-HuFc_His6 was monitored for 600 seconds. Dissociation was monitored for 600 seconds. The buffer for dilutions and all binding steps was 20 mM phosphate, 150 mM NaCl, pH 7.2. […] In addition, amine conjugation may affect the affinity of canine IL4R-ECD_C-His6 to interact with Clone B and I antibodies.

[2] = target: T1, Canine IL4R-ECD_C-His6 (processed) (canine, biotinylated through amine chemistry in the ELISA and Octet assays); assay: BLI (Octet): biotinylated canine IL4R-ECD_C-His6 on streptavidin tips, 1:1 model
T1 chain: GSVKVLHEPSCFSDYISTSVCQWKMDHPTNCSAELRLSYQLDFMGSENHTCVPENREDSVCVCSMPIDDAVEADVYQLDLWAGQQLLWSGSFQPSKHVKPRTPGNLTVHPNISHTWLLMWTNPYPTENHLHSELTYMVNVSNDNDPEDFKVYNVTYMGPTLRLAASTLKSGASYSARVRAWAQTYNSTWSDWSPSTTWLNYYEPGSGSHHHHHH
Method: The binding analysis was performed using an Octet Biosensor as follows. Briefly, canine IL4R-ECD_C-His6 (SEQ ID NO: 107) was biotinylated through amine chemistry. The free unreacted biotin was removed by extensive dialysis. Biotinylated canine IL4R-ECD_C-His6 was captured on streptavidin sensor tips. The association of either Clone B or I antibody and canine IL4R-ECD_C-His6 (25 μg/mL) was monitored for 600 seconds. Dissociation was monitored for 600 seconds. A buffer only blank curve was subtracted to correct for any drift. The data were fit to a 1:1 binding model using ForteBio™ data analysis software to determine the kₒₙ, koff, and the Kd. The buffer for dilutions and all binding steps was 20 mM phosphate, 150 mM NaCl, pH 7.2.

[3] = target: T2, Canine IL4R (extracellular domains produced by 293 cells; Examples 16-19) (canine, biotinylated); assay: method not stated (binding affinity to canine IL4R)
T2 construct: also called biotinylated canine IL4R
T2 chain: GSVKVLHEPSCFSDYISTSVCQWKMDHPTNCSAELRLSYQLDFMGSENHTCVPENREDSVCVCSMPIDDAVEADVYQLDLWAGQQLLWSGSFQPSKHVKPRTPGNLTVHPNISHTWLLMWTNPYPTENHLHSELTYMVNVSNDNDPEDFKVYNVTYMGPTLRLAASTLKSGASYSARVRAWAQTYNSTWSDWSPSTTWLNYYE

[4] = target: T2, Canine IL4R (extracellular domains …); assay: BLI (ForteBio OctetRed): biotinylated canine IL4R on streptavidin tip
Method: The four mouse antibodies were purified from the hybridoma cell cultures and their affinities to canine IL4R were measured using biosensor (ForteBio OctetRed). Biotinylated canine IL4R was bound to the streptavidin sensor tip. The Kds of the 4 candidates were all less than 10 nM.

[5] = target: Canine IL4R-ECD_C-HuFc_His6 (processed) (canine); assay: Western blot
[6] = target: Human IL4R-ECD_C-HuFc_His6 (processed) (human); assay: Western blot
[7] = target: T2, Canine IL4R (extracellular domains …); assay: BLI (ForteBio OctetRed)
Description: DNA sequences encoding a chimeric antibody were designed for a fusion of murine VH and murine VL to canine constant heavy chain IgG-B and canine constant light chain (kappa). The nucleotide sequences were synthesized chemically and inserted into an expression vector suitable for transfection into a CHO host cell. After transfection into CHO cells, the light chain or heavy chain protein or both were secreted from the cell. All four chimeric canine IgG-B were purified by single step Protein A column chromatography.

Sequence of Human IL4R-ECD_C-HuFc_His6 (processed) (human) (chain, as listed by the source limits assumed): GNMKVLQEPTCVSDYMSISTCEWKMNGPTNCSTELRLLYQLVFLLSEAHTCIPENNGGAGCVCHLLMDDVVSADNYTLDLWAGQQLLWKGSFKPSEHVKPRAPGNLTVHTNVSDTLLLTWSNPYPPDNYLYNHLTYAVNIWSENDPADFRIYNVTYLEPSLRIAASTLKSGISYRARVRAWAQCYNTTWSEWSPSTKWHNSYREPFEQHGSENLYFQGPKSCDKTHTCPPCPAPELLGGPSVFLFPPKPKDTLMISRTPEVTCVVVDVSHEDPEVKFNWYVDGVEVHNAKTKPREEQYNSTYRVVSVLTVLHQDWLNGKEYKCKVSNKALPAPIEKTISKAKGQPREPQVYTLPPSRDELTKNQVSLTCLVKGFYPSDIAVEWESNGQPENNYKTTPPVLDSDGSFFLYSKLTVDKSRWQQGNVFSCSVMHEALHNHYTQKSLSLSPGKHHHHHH

| Binder | Kd [3] | Kd [4] | Kd [7] | further results |
| --- | --- | --- | --- | --- |
| B1 |  |  |  | Kd [1]: ~0.1 nM; Kd [2]: 2.03 nM |
| B2 | ≤ 1 nM |  |  |  |
| B3 | ≤ 1 nM |  |  |  |
| B4 |  | < 10 nM |  | binding result [5]: binds; binding result [6]: no binding |
| B5 |  |  | < 10 nM |  |
| B6 | ≤ 1 nM |  |  |  |
| B7 | ≤ 1 nM |  |  |  |
| B8 |  | < 10 nM |  | binding result [5]: binds; binding result [6]: no binding |
| B9 |  |  | < 10 nM |  |
| B10 |  | < 10 nM |  | binding result [5]: binds; binding result [6]: no binding |
| B11 |  |  | < 10 nM |  |
| B12 |  |  | < 10 nM |  |
| B13 |  | < 10 nM |  |  |
